In the Human Domainome abundance scans (Beltran et al. 2025):

B1: Proto-oncogene vav, residues 782 to 842; numbered along this chain, P15498 (parent)
chain: KYFGTAKARYDFCARDRSELSLKEGDIIKILNKKGQQGWWRGEIYGRVGWFPANYVEEDYS
B2: SAM and SH3 domain-containing protein 1, residues 630 to 700; numbered along this chain, O94885 (parent)
chain: GRPPQPKSVEDLLDRINLKEHMPTFLFNGYEDLDTFKLLEEEDLDELNIRDPEHRAVLLTAVELLQEYDSN

Variants of: B1
Assay: abundance fitness (aPCA) (normalised: wild type 0, dead -1); higher = more abundant; growth selection in yeast, the domain comes from the species named
Conditions: Homo sapiens

Abundance fitness of substitutions, site by site:
F3: G -0.268, E -0.192, D -0.274, P -0.232, S -0.167, Y -0.009, I 0.058, K -0.103, N -0.173, V -0.029, M -0.054, L 0.027, T -0.063, H -0.396, C -0.105, W -0.166, R -0.145
A6: C -0.115, D -0.679, E -0.904
G4: R -0.183, Y -0.213, M -0.164, A -0.163, N -0.166, S -0.111, H -0.292, F -0.348, I -0.238, D -0.083, C -0.274, E -0.298, T -0.089, Q -0.151, L -0.247, P 0.011, W -0.169
T5: Y -0.064, C -0.152, M -0.209, L -0.099, W -0.178, A -0.084, P -0.401, E -0.25, I -0.248, S -0.179, R -0.209, H -0.094, V -0.159, F 0.168, K -0.468
Y2: S -0.033, I -0.097, H -0.138, W -0.36, K -0.392, F 0.061, E -0.238, P -0.212, N 0.228, R -0.226, D 0.021, C -0.229, L -0.323, M -0.082, G -0.15, V -0.247, T -0.138
K1: L -0.21, A -0.456, Y -0.261, H -0.109, W -0.474, T -0.27, N 0.099, V -0.241, Q 0.088, E -0.16, G -0.227, R -0.643, D -0.437, F -0.159, P -0.822, S -0.198

Variants of: B2
Assay: as above
Conditions: Homo sapiens

Abundance fitness, by site and new letter:
Y68: P 0.015, A 0.245, C 0.105, G 0.168, W -0.056, E 0.21, D 0.076, I -0.191, T 0.031, K 0.054, M 0.025, V -0.038, Q 0.254, R 0.094, L -0.068, S 0.14, N 0.138
N71: R 0.087, H 0.056, D 0.197, F -0.117, A 0.116, M -0.071, K 0.007, Y -0.132, E 0.163, V 0.035, P 0.005, I -0.117, C -0.009, Q 0.121, W -0.256, G 0.041
S70: T 0.422, F -0.508
A56: S 0.011, Y -0.605, V -0.493, R 0.191, W -0.816, T -0.114
L59: N -0.491, A -0.569, P -0.445, S -0.514, H -0.564, Y -0.823, M 0.001, C -0.678, I -0.525, V -0.735, K -0.206, F -0.792, T -0.562, G -0.511, Q -0.478, D -0.577, W -0.822
E63: W -0.751, R 0.133, L -0.587, V -0.831, M -0.492, Y -0.687, N -0.066, I -0.898, Q -0.018, A 0.034, H -0.075, S 0.004, D -0.058, K 0.244, F -0.866, G -0.15, T -0.226
Q66: F -0.694, H -0.035, T -0.347, E -0.623, C -0.448, A -0.317, P -0.673
